Measurements: patent US20090155256A1 (Pfizer, published 2009)
Each block holds one binder with its values, some of them ahead of it.

What was measured:
[1] = biological target: T1, His-tagged domains of human FcγRI (R&D Systems, Cat # 1257-Fc) (human, UniProt P12314 16-288); experiment: SPR (Biacore 3000), His-tagged receptor captured by penta-His antibody on CM5 chip, antibody injected; RU relative to control
T1 construct: Bought construct; not shown: His tag

[2] = biological target: T2, His-tagged domains of human FcγRIII (R&D Systems, Cat # 1597-Fc) (human, UniProt O75015 17-200, limits assumed); experiment: as above
T2 construct: not shown: His tag

[3] = biological target: Purified human C1q (191391, MP Biomedicals) (human, UniProt P02745 23-245; P02746 28-253; P02747 29-245); experiment: ELISA: Aβ-coated plate, antibody, purified human C1q, FITC anti-C1q
[4] = biological target: T1, His-tagged domains of human FcγRI (R&D …); experiment: SPR (Biacore 3000), His-tagged receptor captured by penta-His antibody
[5] = biological target: T2, His-tagged domains of human FcγRIII …; experiment: as above

T2 sequence (O75015 17-200 limits assumed): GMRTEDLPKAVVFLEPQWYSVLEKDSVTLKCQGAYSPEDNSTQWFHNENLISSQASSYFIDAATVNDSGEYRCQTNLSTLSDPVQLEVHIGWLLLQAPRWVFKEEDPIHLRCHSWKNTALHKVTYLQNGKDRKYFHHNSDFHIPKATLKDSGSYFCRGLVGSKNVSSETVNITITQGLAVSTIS
Chain of Purified human C1q (191391, MP Biomedicals) (P02745 23-245 limits assumed, chain 1 of 3): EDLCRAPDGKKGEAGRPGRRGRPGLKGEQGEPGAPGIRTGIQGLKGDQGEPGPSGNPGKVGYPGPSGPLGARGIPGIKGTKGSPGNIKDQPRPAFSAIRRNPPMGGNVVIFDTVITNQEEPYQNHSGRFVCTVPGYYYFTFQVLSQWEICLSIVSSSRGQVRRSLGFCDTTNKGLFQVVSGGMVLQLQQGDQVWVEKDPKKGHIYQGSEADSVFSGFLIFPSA
Chain of Purified human C1q (191391, MP Biomedicals) (P02746 28-253 limits assumed, chain 2 of 3): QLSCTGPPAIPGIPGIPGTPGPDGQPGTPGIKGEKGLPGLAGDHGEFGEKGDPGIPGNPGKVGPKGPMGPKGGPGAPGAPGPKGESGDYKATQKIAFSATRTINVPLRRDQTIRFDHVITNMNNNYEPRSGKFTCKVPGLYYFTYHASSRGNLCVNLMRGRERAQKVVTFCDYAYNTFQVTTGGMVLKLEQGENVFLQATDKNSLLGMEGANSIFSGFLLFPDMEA
Chain of Purified human C1q (191391, MP Biomedicals) (P02747 29-245 limits assumed, chain 3 of 3): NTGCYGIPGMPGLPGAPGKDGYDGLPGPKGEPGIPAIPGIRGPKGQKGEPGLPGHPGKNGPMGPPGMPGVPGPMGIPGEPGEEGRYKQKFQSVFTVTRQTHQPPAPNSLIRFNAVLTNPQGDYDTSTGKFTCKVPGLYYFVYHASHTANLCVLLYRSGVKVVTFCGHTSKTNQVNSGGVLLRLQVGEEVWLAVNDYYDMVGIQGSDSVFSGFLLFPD
T1 sequence (P12314 16-288 limits assumed): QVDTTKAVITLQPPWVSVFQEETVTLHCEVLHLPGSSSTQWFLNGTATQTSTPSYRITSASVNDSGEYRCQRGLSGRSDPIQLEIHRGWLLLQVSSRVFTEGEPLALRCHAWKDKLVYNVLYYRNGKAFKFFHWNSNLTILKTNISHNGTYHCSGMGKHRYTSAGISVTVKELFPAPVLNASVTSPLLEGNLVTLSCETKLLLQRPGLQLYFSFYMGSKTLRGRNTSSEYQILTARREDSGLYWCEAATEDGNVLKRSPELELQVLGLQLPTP

B1: Humanized 3D6 2m (FcγR), human IgG1 L234A/G237A (EU numbering) (antibody)
heavy: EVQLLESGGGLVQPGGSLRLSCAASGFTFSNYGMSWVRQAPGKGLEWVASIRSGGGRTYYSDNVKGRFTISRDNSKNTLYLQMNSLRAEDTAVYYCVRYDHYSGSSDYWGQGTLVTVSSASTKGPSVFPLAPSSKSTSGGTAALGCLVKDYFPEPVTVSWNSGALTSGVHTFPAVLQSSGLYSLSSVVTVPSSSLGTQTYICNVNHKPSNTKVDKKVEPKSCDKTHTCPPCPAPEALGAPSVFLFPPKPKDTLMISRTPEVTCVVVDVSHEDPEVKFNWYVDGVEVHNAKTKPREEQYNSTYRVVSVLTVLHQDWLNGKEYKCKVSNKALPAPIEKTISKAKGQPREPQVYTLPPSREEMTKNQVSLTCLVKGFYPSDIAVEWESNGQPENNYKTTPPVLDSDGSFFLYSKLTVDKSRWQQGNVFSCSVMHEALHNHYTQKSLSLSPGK
light: DVVMTQSPLSLPVTPGEPASISCKSSQSLLDSDGKTYLNWLLQKPGQSPQRLIYLVSKLDSGVPDRFSGSGSGTDFTLKISRVEAEDVGVYYCWQGTHFPRTFGQGTKVEIKRTVAAPSVFIFPPSDEQLKSGTASVVCLLNNFYPREAKVQWKVDNALQSGNSQESVTEQDSKDSTYSLSSTLTLSKADYEKHKVYACEVTHQGLSSPVTKSFNRGEC
notes: also called Hu 3D6 2 m; Hu 3D6 2 m IgG1
Relative Binding Capability (%) [1]: 0%
Relative Binding Capability (%) [2]: 0%
binding result [3]: no binding
binding result [4]: no binding
binding result [5]: no binding

B3: Humanized 3D6 3m (FcγR) AAB-003, human IgG1 L234A/L235A/G237A (EU numbering) (antibody)
heavy: EVQLLESGGGLVQPGGSLRLSCAASGFTFSNYGMSWVRQAPGKGLEWVASIRSGGGRTYYSDNVKGRFTISRDNSKNTLYLQMNSLRAEDTAVYYCVRYDHYSGSSDYWGQGTLVTVSSASTKGPSVFPLAPSSKSTSGGTAALGCLVKDYFPEPVTVSWNSGALTSGVHTFPAVLQSSGLYSLSSVVTVPSSSLGTQTYICNVNHKPSNTKVDKKVEPKSCDKTHTCPPCPAPEAAGAPSVFLFPPKPKDTLMISRTPEVTCVVVDVSHEDPEVKFNWYVDGVEVHNAKTKPREEQYNSTYRVVSVLTVLHQDWLNGKEYKCKVSNKALPAPIEKTISKAKGQPREPQVYTLPPSREEMTKNQVSLTCLVKGFYPSDIAVEWESNGQPENNYKTTPPVLDSDGSFFLYSKLTVDKSRWQQGNVFSCSVMHEALHNHYTQKSLSLSPGK
light: B1 light
notes: also called Hu 3D6 3 m; Hu 3D6 3 m IgG1
Relative Binding Capability (%) [1]: 0%
Relative Binding Capability (%) [2]: 0%
binding result [3]: no binding
binding result [4]: no binding
binding result [5]: no binding

The remaining lines, values ahead:

Relative Binding Capability (%) [2]: 0%
binding result [3]: no binding
binding result [4]: binds
binding result [5]: no binding
B2: Humanized 3D6 1m (hinge region), human IgG4 S241P (Kabat numbering) (antibody)
heavy: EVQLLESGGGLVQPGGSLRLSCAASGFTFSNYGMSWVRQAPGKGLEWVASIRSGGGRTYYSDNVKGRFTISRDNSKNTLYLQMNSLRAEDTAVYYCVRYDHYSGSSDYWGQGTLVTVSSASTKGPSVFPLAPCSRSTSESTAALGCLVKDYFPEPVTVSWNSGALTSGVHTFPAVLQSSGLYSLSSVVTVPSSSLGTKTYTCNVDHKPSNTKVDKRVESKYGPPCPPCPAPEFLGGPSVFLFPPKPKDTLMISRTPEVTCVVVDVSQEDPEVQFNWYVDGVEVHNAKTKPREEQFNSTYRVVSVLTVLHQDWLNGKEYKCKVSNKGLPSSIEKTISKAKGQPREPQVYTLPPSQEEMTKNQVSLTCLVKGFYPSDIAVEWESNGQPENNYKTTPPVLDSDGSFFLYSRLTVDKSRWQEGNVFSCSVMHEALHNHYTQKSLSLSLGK
light: B1 light
notes: also called Hu 3D6 1m IgG4; IgG4 isotype

Relative Binding Capability (%) [1]: 100%
Relative Binding Capability (%) [2]: 100%
B4: Bapineuzumab (humanized 3D6, human IgG1, no Fc mutations) (antibody)
heavy: not shown
light: B1 light
notes: also called AAB-001; Bapineuzumab Control
